This is an account of results in PMC3057930 (Proteins, 2010).

Data set [1] has as its target T1, CaM1-148 (Paramecium tetraurelia, UniProt P07463). The data set can be described thus: CaM titration of Fl-βCaNp, fluorescence anisotropy, CaM1-148. The data set is classed as binding. The conditions noted are these: CaM1-148, Ca2+-saturated (limiting value), 10 mM CaCl2, 100 nM Fl-βCaNp, stoichiometric titration, upper limit, pH 7.4, 22 °C.
Data set [2] addresses T1, CaM1-148. Description: Population distribution of calcium ligation species.
The next data set concerns CaM C-domain vs N-domain. The conditions noted are these: ref [15]; cited from earlier work.
For data set [3], the target named is CaN. The conditions noted are these: cited from earlier work.
The subject of data set [4] is CaN. The conditions noted are these: CaM binding to CaNA; ref [9],[10]; cited from earlier work.
For a further data set, the system named is 15N-(Ca^2+)4-CaM1-148. The data set can be described thus: 15N T2 relaxation by NMR. It counts as physicochemical, Paramecium. The conditions noted are these: 500 μM 15N-CaM1-148, 10-20% molar excess of peptide; 5 mM CaCl2, 50 mM HEPES, pH 7.4; 22 °C; 800 MHz; excluding mobile termini.
The target in a further data set is (Ca^2+)4-CaM1-148 (Paramecium tetraurelia, UniProt P07463). The conditions noted are these: Ca2+-CaM1-148 bound to melittin; 10 mM CaCl2; ref Sorensen et al [42]; cited from earlier work.

Marks after values point to notes of the source that are not given here.

The compound `CC[C@H](C)[C@H](NC(=O)[C@H](C)NC(=O)[C@H](CCCNC(=N)N)NC(=O)[C@@H](NC(=O)[C@H](CCCCN)NC(=O)[C@H](CC(N)=O)NC(=O)[C@H](CCCNC(=N)N)NC(=O)[C@@H](NC(=O)[C@@H](NC(=O)[C@H](CCC(=O)O)NC(=O)[C@H](CCCCN)NC(=O)[C@H](CCCNC(=N)N)NC(=O)[C@H](C)N)[C@@H](C)CC)[C@@H](C)CC)[C@@H](C)CC)C(=O)NCC(=O)N[C@@H](CCCCN)C(=O)N[C@@H](CCSC)C(=O)N[C@@H](C)C(=O)N[C@@H](CCCNC(=N)N)C(=O)N[C@H](C(=O)N[C@@H](Cc1ccccc1)C(=O)N[C@@H](CO)C(=O)N[C@H](C(=O)N[C@@H](CC(C)C)C(=O)N[C@@H](CCCNC(=N)N)C(=O)O)C(C)C)C(C)C` [βCaNp] displayed a Kd at CaM1-148 [1] of no more than 1 nM. Further, at CaM1-148 [2] (CaM1-148, presence of βCaNp), the “cooperativity term kI–II” value worked out at 19.90 M⁻¹.
With “CaM1-148: full-length Paramecium CaM, residues 1-148”, in the data set with CaM1-148 [2] (CaM1-148, absence of βCaNp), the “cooperativity term kIII–IV” value is 54.39 M⁻¹ and the “cooperativity term kI–II” value amounted to 1.73 M⁻¹. In addition, the “calcium affinity of C-domain relative to N-domain” value in the data set on CaM C-domain vs N-domain was ~ 25 fold.
As for Calmodulin [CaM], in the data set with CaM1-148 [2] (CaM alone, simulation), the “Ca2+ concentration of maximal population of intermediate (0011)” value is 2 µM and the “maximal population of intermediate (0011)” value is 70%. Further, on CaN [3] (ref [35]), the “dissociation constant of (Ca2+)4-CaM from CaN (range in words)” value is listed as “low nM range”. On CaN [3] (ref [36]), the “Kd of full-length CaM from CaN (range in words)” value is “pM range”. Besides, the “increase of phosphatase activity of CaN” value in the data set with CaN [4] is on record as 10 fold.
Regarding Mammalian CaM [mCaM], the “calcium affinity of C-domain relative to N-domain” value in the data set on CaM C-domain vs N-domain is on record as “about 10 fold”.
As to “Melittin: another peptide that forms a 1:1 complex with CaM (GIGAVLKVLTTGLPALISWIKRKRQQG)”, in the data set with 15N-(Ca^2+)4-CaM1-148, the “Average T2” value is 0.050 ± 0.006 s. The “Stokes Radius” value with (Ca^2+)4-CaM1-148 was 22.94 ± 0.32 ^f Å.

A word on the Kd: it is a measure of binding affinity in units of concentration.
